In this test the target is recombinant mouse α-synuclein amyloid fibrils (mouse) (UniProt O55042). The test is described as follows: SPR.

Consider “recombinant full-length mouse PrP MoPrP(23-231) (from UniProt P04925 23-231) (natural protein)”, for which the KD, first of two (ratio of one of two koff values to kon) amounted to 3.1 nM and the KD, second of two (ratio of one of two koff values to kon) was 36.5 nM.

The values are drawn from article PMC5577263.
